Data on three molecules can be found in paper PMC7335780, “Role of folding kinetics of secondary structures in telomeric G-overhangs in the regulation of telomere maintenance in Saccharomyces cerevisiae”.

The target of data set [1] is T1, Cdc13-DBD (Saccharomyces cerevisiae (strain SCY325), UniProt P32797 497-694).
T1 sequence: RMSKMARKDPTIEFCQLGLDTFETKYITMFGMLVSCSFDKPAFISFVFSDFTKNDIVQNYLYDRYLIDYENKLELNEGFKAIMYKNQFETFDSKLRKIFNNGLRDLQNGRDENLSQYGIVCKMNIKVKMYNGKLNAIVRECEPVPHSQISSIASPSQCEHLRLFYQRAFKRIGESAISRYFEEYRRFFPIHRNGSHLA
The experiment in a line: competition; competitor in water, 50 or 75 nM, vs 32P-ONG11; EMSA: 1x K+ buffer (20 mM potassium phosphate pH 7.0, 135 mM KCl, 9% glycerol), 10 min at 22 C/RT, 6% PAGE in 0.5x TBE; NMR in K+TD (K+ buffer + 0.25% Triton X-100, 1 mM DTT). To be noted: protein: recombinant, tags: GST tag (pGEX-6T-2) removed with HRV 3C protease, vector-derived residues may remain, unfolded single strand. A general note: In EMSA bound probe runs differently from free probe, usually more slowly.

Data set [2] concerns the target T1, Cdc13-DBD. The experiment in a line: EMSA; freshly boiled probe, protein titration; EMSA: 1x K+ buffer (20 mM potassium phosphate pH 7.0, 135 mM KCl, 9% glycerol), 10 min at 22 C/RT, 6% PAGE in 0.5x TBE; NMR in K+TD (K+ buffer + 0.25% Triton X-100, 1 mM DTT). To be noted: protein: recombinant; tags: GST tag (pGEX-6T-2) removed with HRV 3C protease; vector-derived residues may remain; label: 5'-32P; single strand when freshly boiled; G-hairpin after long folding.

Take GTGTGGGTGTGGTGTGGGTGTGGTGTGGGTGTG (ssDNA) [ONG1 unfolded (H2O)]: in the data set with Cdc13-DBD [1] (label: none), the binding result was “binds”. Turning to GTGTGGGTGTG (ssDNA) [ONG11 unfolded (H2O or freshly boiled)], the binding result with Cdc13-DBD [1] is recorded as “binds”. Regarding GTGTGGGTGTG (ssDNA, 5' phosphate) [ONG11 5'-32P probe], in the data set with Cdc13-DBD [2], the binding result is “binds”.
